Measurements reported in patent US20250002610A1 (Genmab, published 2025).

T1: human DR4 (Death Receptor 4), cell surface expressed on human tumor cell lines (human, UniProt O00220 24-468)
T1 construct: also called TNFRSF10A; TRAIL-R1
T1 sequence: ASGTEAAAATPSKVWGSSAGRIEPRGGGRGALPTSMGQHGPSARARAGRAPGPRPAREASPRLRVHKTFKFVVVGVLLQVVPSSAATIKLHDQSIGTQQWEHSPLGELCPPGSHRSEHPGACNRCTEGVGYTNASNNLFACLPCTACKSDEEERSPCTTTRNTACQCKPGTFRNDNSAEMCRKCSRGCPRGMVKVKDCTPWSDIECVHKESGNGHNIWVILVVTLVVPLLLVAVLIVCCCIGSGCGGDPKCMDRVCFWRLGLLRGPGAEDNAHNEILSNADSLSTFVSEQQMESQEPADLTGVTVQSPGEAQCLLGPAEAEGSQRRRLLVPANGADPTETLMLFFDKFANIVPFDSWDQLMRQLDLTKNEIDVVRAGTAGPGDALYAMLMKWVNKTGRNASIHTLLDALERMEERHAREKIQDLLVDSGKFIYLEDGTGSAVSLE

T2: human FAPα (Fibroblast activation protein alpha), cell surface expressed (human, UniProt Q12884 1-760)
T2 construct: Endogenous on human lung fibroblasts and CAFs
T2 sequence: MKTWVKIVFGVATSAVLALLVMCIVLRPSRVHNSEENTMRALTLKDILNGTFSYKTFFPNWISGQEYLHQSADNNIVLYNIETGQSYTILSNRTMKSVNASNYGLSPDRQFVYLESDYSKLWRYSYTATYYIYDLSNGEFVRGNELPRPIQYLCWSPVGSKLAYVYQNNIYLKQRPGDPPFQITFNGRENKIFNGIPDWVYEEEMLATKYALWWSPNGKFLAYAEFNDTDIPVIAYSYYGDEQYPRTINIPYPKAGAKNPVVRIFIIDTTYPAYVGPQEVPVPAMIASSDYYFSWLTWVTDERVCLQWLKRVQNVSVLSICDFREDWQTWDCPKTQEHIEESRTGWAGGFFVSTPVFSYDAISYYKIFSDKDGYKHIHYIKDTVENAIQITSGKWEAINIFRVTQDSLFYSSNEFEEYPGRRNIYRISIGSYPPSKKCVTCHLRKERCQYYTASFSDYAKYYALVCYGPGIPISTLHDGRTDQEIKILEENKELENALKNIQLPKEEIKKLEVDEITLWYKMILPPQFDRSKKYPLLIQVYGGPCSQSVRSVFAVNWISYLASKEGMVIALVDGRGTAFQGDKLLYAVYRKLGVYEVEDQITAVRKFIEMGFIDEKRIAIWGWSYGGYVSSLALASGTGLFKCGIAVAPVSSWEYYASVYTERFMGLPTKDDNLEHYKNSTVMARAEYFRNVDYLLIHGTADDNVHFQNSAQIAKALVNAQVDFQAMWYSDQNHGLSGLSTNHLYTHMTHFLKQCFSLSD

B1: IgG1-DR4-FERR (antibody, V domains shown)
VH: QVQLQESGPGLVKPSGTLSLTCAVSGGSISSYSWWSWIRQPPGKGLEWIGELYHSGSTNYNPSLKSRVTISVDKSKNQFSLKLRSVTAADTAVYYCVRGVATIDYWGQGTLVTVSS
VL: QSALTQPPSASGSPGQSVTISCTGTSSDVGGYNFVSWYQQDPGKAPKLLIYEVTKRPSGVPDRFSGSKSGNTASLTVSGLQAEDEADYYCSSYAGSNNVMFGGGTKLTVLG
notes: Bivalent monoclonal IgG1 lambda
B2: BisG1-FAPα-FEAL/b12-FEAR (bispecific antibody, human IgG1, kappa)
heavy 1: EVQLLESGGGLVQPGGSPRLSCEASGFTFSSYALSWVRQAPGKGLEWVSAISGSGGGRYYADSVKGRFTISRDNSKNTLFLQMNSLRAEDTAVYYCAKEGYSSSGTYWDHWGQGTLVTVSSASTKGPSVFPLAPSSKSTSGGTAALGCLVKDYFPEPVTVSWNSGALTSGVHTFPAVLQSSGLYSLSSVVTVPSSSLGTQTYICNVNHKPSNTKVDKRVEPKSCDKTHTCPPCPAPEFEGGPSVFLFPPKPKDTLMISRTPEVTCVVVAVSHEDPEVKFNWYVDGVEVHNAKTKPREEQYNSTYRVVSVLTVLHQDWLNGKEYKCKVSNKALPAPIEKTISKAKGQPREPQVYTLPPSREEMTKNQVSLTCLVKGFYPSDIAVEWESNGQPENNYKTTPPVLDSDGSFLLYSKLTVDKSRWQQGNVFSCSVMHEALHNHYTQKSLSLSPG
light 1: AIQMTQSPSSVSASVGDRVTITCRASQGVSSWLAWYQQKPGRAPKLLIYVASTLQSGVPSRFSGSGSGTDFTLTINSLQPEDFATYYCQQANSFPPTFGQGTRLEMKRTVAAPSVFIFPPSDEQLKSGTASVVCLLNNFYPREAKVQWKVDNALQSGNSQESVTEQDSKDSTYSLSSTLTLSKADYEKHKVYACEVTHQGLSSPVTKSFNRGEC
heavy 2: QVQLVQSGAEVKKPGASVKVSCQASGYRFSNFVIHWVRQAPGQRFEWMGWINPYNGNKEFSAKFQDRVTFTADTSANTAYMELRSLRSADTAVYYCARVGPYSWDDSPQDNYYMDVWGKGTTVIVSSASTKGPSVFPLAPSSKSTSGGTAALGCLVKDYFPEPVTVSWNSGALTSGVHTFPAVLQSSGLYSLSSVVTVPSSSLGTQTYICNVNHKPSNTKVDKRVEPKSCDKTHTCPPCPAPEFEGGPSVFLFPPKPKDTLMISRTPEVTCVVVAVSHEDPEVKFNWYVDGVEVHNAKTKPREEQYNSTYRVVSVLTVLHQDWLNGKEYKCKVSNKALPAPIEKTISKAKGQPREPQVYTLPPSREEMTKNQVSLTCLVKGFYPSDIAVEWESNGQPENNYKTTPPVLDSDGSFFLYSRLTVDKSRWQQGNVFSCSVMHEALHNHYTQKSLSLSPG
light 2: EIVLTQSPGTLSLSPGERATFSCRSSHSIRSRRVAWYQHKPGQAPRLVIHGVSNRASGISDRFSGSGSGTDFTLTITRVEPEDFALYYCQVYGASSYTFGQGTKLERKRTVAAPSVFIFPPSDEQLKSGTASVVCLLNNFYPREAKVQWKVDNALQSGNSQESVTEQDSKDSTYSLSSTLTLSKADYEKHKVYACEVTHQGLSSPVTKSFNRGEC
notes: Fab-arm exchange of IgG1-FAPα-FEAL and IgG1-b12-FEAR
B3: IgG1-FAPα-FERL (antibody)
heavy: EVQLLESGGGLVQPGGSPRLSCEASGFTFSSYALSWVRQAPGKGLEWVSAISGSGGGRYYADSVKGRFTISRDNSKNTLFLQMNSLRAEDTAVYYCAKEGYSSSGTYWDHWGQGTLVTVSSASTKGPSVFPLAPSSKSTSGGTAALGCLVKDYFPEPVTVSWNSGALTSGVHTFPAVLQSSGLYSLSSVVTVPSSSLGTQTYICNVNHKPSNTKVDKRVEPKSCDKTHTCPPCPAPEFERGPSVFLFPPKPKDTLMISRTPEVTCVVVDVSHEDPEVKFNWYVDGVEVHNAKTKPREEQYNSTYRVVSVLTVLHQDWLNGKEYKCKVSNKALPAPIEKTISKAKGQPREPQVYTLPPSREEMTKNQVSLTCLVKGFYPSDIAVEWESNGQPENNYKTTPPVLDSDGSFLLYSKLTVDKSRWQQGNVFSCSVMHEALHNHYTQKSLSLSPG
light: AIQMTQSPSSVSASVGDRVTITCRASQGVSSWLAWYQQKPGRAPKLLIYVASTLQSGVPSRFSGSGSGTDFTLTINSLQPEDFATYYCQQANSFPPTFGQGTRLEMKRTVAAPSVFIFPPSDEQLKSGTASVVCLLNNFYPREAKVQWKVDNALQSGNSQESVTEQDSKDSTYSLSSTLTLSKADYEKHKVYACEVTHQGLSSPVTKSFNRGEC
notes: Bivalent monoclonal IgG1 kappa
B4: BisG1-b12-FERL/DR4-FERR (bispecific antibody, human IgG1, kappa, lambda)
heavy 1: QVQLVQSGAEVKKPGASVKVSCQASGYRFSNFVIHWVRQAPGQRFEWMGWINPYNGNKEFSAKFQDRVTFTADTSANTAYMELRSLRSADTAVYYCARVGPYSWDDSPQDNYYMDVWGKGTTVIVSSASTKGPSVFPLAPSSKSTSGGTAALGCLVKDYFPEPVTVSWNSGALTSGVHTFPAVLQSSGLYSLSSVVTVPSSSLGTQTYICNVNHKPSNTKVDKRVEPKSCDKTHTCPPCPAPEFERGPSVFLFPPKPKDTLMISRTPEVTCVVVDVSHEDPEVKFNWYVDGVEVHNAKTKPREEQYNSTYRVVSVLTVLHQDWLNGKEYKCKVSNKALPAPIEKTISKAKGQPREPQVYTLPPSREEMTKNQVSLTCLVKGFYPSDIAVEWESNGQPENNYKTTPPVLDSDGSFLLYSKLTVDKSRWQQGNVFSCSVMHEALHNHYTQKSLSLSPG
light 1: EIVLTQSPGTLSLSPGERATFSCRSSHSIRSRRVAWYQHKPGQAPRLVIHGVSNRASGISDRFSGSGSGTDFTLTITRVEPEDFALYYCQVYGASSYTFGQGTKLERKRTVAAPSVFIFPPSDEQLKSGTASVVCLLNNFYPREAKVQWKVDNALQSGNSQESVTEQDSKDSTYSLSSTLTLSKADYEKHKVYACEVTHQGLSSPVTKSFNRGEC
heavy 2: QVQLQESGPGLVKPSGTLSLTCAVSGGSISSYSWWSWIRQPPGKGLEWIGELYHSGSTNYNPSLKSRVTISVDKSKNQFSLKLRSVTAADTAVYYCVRGVATIDYWGQGTLVTVSSASTKGPSVFPLAPSSKSTSGGTAALGCLVKDYFPEPVTVSWNSGALTSGVHTFPAVLQSSGLYSLSSVVTVPSSSLGTQTYICNVNHKPSNTKVDKRVEPKSCDKTHTCPPCPAPEFERGPSVFLFPPKPKDTLMISRTPEVTCVVVDVSHEDPEVKFNWYVDGVEVHNAKTKPREEQYNSTYRVVSVLTVLHQDWLNGKEYKCKVSNKALPAPIEKTISKAKGQPREPQVYTLPPSREEMTKNQVSLTCLVKGFYPSDIAVEWESNGQPENNYKTTPPVLDSDGSFFLYSRLTVDKSRWQQGNVFSCSVMHEALHNHYTQKSLSLSPG
light 2: QSALTQPPSASGSPGQSVTISCTGTSSDVGGYNFVSWYQQDPGKAPKLLIYEVTKRPSGVPDRFSGSKSGNTASLTVSGLQAEDEADYYCSSYAGSNNVMFGGGTKLTVLGQPKAAPSVTLFPPSSEELQANKATLVCLISDFYPGAVTVAWKADSSPVKAGVETTTPSKQSNNKYAASSYLSLTPEQWKSHRSYSCQVTHEGSTVEKTVAPTECS
notes: Fab-arm exchange of IgG1-b12-FERL and IgG1-DR4-FERR; also called bsIgG1-ctrl-FERLxDR4-FERR

Legend:
[1] = target: T1, human DR4 (Death Receptor 4), cell …; assay: flow cytometry, A549 cells, n = 3
[2] = target: T1, human DR4 (Death Receptor 4), cell …; assay: flow cytometry, HCT-15 cells, n = 1
[3] = target: T1, human DR4 (Death Receptor 4), cell …; assay: flow cytometry, A549 cells, average ± SEM
[4] = target: T2, human FAPα (Fibroblast activation …); assay: flow cytometry, Expi293F cells expressing human FAPα, n = 1
Description: (§1) Binding of BisG1-FAPα-FERL/DR4-FERR, BisG1-FAPα-FEAL/b12-FEAR and IgG1-FAPα-FERL to FAPα of species commonly used for nonclinical toxicology studies was assessed by flow cytometry using Expi293F cells transiently expressing FAPα from different animal species. IgG1-b12 was included as negative control.
(§2) Expi293F cells expressing recombinant FAPα from various species (human, cynomolgus monkey, dog, pig, rat or mouse) were seeded (20,000 cells/well) in 96-Well round bottom plates (Greiner Bio-one, Cat #650101). Antibody dilutions were prepared using FACS buffer, consisting of PBS (Capricorn Scientific, Cat #PBS-10XA, diluted to 1×PBS in distilled water)+1% BSA (Roche, Cat #10735086001)+0.02% Sodium Azide (Bio-World, Cat #41920044-3). Plates were centrifuged, supernatant was removed, and cells were resuspended in 100 μL of antibody dilutions (concentration range 30-0.00017 μg/mL with three-fold serial dilutions using FACS buffer) of BisG1-FAPα-FERL/DR4-FERR, BisG1-FAPα-FEAL/b12-FEAR, IgG1-FAPα-FERL and IgG1-b12 and incubated for 30 min at 4° C. […] After 30 min incubation at 4° C., cells were washed with FACS buffer and resuspended in FACS buffer supplemented with TO-PRO-3 Iodide viability marker (Invitrogen, Cat #T3605, diluted 1:4,000). Antibody binding to viable cells (gMFI of PE on TO-PRO-3 negative cells) was analyzed by flow cytometry on a FACS Celesta and FACS_Diva software (first two experiments) or iQue® 3 and FlowJo software (last experiment). gMFI was determined and visualized using GraphPad Prism. Binding curves were analyzed using nonlinear regression analysis. The concentration (pg/mL) at which 50% of the maximal effect was observed (EC₅₀) was derived from the fitted curves.

[5] = target: T2, human FAPα (Fibroblast activation …); assay: flow cytometry, Expi293F cells expressing human FAPα, n = 2
Description: as §1, §2

[6] = target: T2, human FAPα (Fibroblast activation …); assay: flow cytometry, Expi293F cells expressing human FAPα, average ± SEM
Description: as §1, §2

Row | Binder | EC50 [1] [µg/mL] | EC50 [2] [µg/mL] | EC50 [3] [µg/mL] | EC50 [4] [µg/mL] | EC50 [5] [µg/mL] | EC50 [6] [µg/mL]
1 | B1 | 0.21 | 0.18 | 0.32 |  |  | 
2 | B2 |  |  |  | 0.14 | 0.16 | 0.3
3 | B3 |  |  |  | 0.11 | 0.12 | 0.18
4 | B4 | 0.78 | 0.59 | 0.78 |  |  | 
